Laboratory results reported in PMC3500661 (Biochemistry, 2012).

Target: the molecule itself
Assay: NMR solution structure

B1: Mycobacterium tuberculosis NmtR (apo-state, homodimer) (natural protein)
chain: GHGVEGRNRPSAPLDSQAAAQVASTLQALATPSRLMILTQLRNGPLPVTDLAEAIGMEQSAVSHQLRVLRNLGLVVGDRAGRSIVYSLYDTHVAQLLDEAIYHSEHLHLGLSDRHPSAG
  binding result: binds
